Experimental data reported in patent publication US20050287527.

human α-thrombin
proteolytic cleavage of the peptide by thrombin (GPNPRHL): proteolytically cleaved after the arginine residues in the presence of the human thrombin | proteolytic cleavage of the peptide by thrombin (GVDPRHL): proteolytically cleaved after the arginine residues in the presence of the human thrombin | proteolytic cleavage of the peptide by thrombin (GFNPRHL): proteolytically cleaved after the arginine residues in the presence of the human thrombin | proteolytic cleavage of the peptide by thrombin (GFSARHL): proteolytically cleaved after the arginine residues in the presence of the human thrombin | proteolytic cleavage of the peptide by thrombin (GLDPRHL): proteolytically cleaved after the arginine residues in the presence of the human thrombin
